A word on the Kd: it is the free concentration of one partner at which half of the binding sites on the other are occupied at equilibrium, for simple one-to-one binding. High values mean lower affinity, low ones higher affinity.

In assay [1] the target is T1, extracellular domain of cynomolgous BCMA (cynomolgous, UniProt A0A2K5UD97 1-53).
T1 construct: Used coated on plates in ELISA and in the mobile phase in SPR; also called cyBCMA; cynoBCMA
Kind of assay: SPR, IgG immobilised on GLH chip, BCMA in the mobile phase (n = 2). In general terms: SPR reads the build-up and loss of mass on a sensor chip optically.

For assay [2], the target named is T2, extracellular domain of human CD269 (BCMA, TNFRSF17) (human, UniProt Q02223 4-54).
T2 construct: also called hBCMA; human BCMA
T2 sequence: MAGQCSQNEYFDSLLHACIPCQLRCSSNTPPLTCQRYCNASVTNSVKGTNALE
Description: SPR, IgG immobilised on GLH chip, BCMA in the mobile phase (n = 3).

T1 sequence (A0A2K5UD97 entry or part of it limits assumed, form in doubt): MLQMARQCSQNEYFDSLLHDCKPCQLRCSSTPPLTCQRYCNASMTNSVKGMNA

B1: J22.9-H (antibody, V domains shown)
VH: EVQLVESGGGLVQPGGSLRLSCAASGFTFSRYWMSWVRQAPGKGLVWVGEINPDSSTINYAPSLKDKFTISRDNAKNTLYLQMNSLRAEDTAVYYCASLYYDYGDAMDYWGQGTLVTVSS
VL: EIVMTQSPATLSVSPGERATLSCKASQSVDSNVAWYQQKPGQAPRALIYSASLRFSGIPARFSGSGSGTEFTLTISSLQSEDFAVYYCQQYNNYPLTFGAGTKLELKR
As for B1, the Kd is 200 nM in assay [1] and 15 nM in assay [2].

B2: J22.9-ISY (antibody, V domains shown)
VH: EVQLVESGGGLVQPGGSLRLSCAASGFTFSRYWISWVRQAPGKGLVWVGEINPSSSTINYAPSLKDKFTISRDNAKNTLYLQMNSLRAEDTAVYYCASLYYDYGDAYDYWGQGTLVTVSS
VL: EIVMTQSPATLSVSPGERATLSCKASQSVESNVAWYQQKPGQAPRALIYSASLRFSGIPARFSGSGSGTEFTLTISSLQSEDFAVYYCQQYNNYPLTFGAGTKLELK
Regarding B2, the equilibrium dissociation constant (Kd) in assay [1] came out at 17 nM; in assay [2], 2 nM.

B3: J22.9-FSY (antibody, V domains shown)
VH: EVQLVESGGGLVQPGGSLRLSCAASGFTFSRYWFSWVRQAPGKGLVWVGEINPSSSTINYAPSLKDKFTISRDNAKNTLYLQMNSLRAEDTAVYYCASLYYDYGDAYDYWGQGTLVTVSS
VL: EIVMTQSPATLSVSPGERATLSCKASQSVESNVAWYQQKPGQAPRALIYSASLRFSGIPARFSGSGSGTEFTLTISSLQSEDFAVYYCQQYNNYPLTFGAGTKLELK
Consider B3, for which the values for the Kd in assay [1] and in assay [2] were 20 nM and 2.2 nM, respectively.

These data come from patent US20190112382A1 (published 2019).
